The values that follow come from publication PMC9408895.

Positions count from the first letter of the chain named. Names may count otherwise.

This assay has as its target T1, senescence-suppressed protein phosphatase SSPP (His-SSPP).
T1 chain: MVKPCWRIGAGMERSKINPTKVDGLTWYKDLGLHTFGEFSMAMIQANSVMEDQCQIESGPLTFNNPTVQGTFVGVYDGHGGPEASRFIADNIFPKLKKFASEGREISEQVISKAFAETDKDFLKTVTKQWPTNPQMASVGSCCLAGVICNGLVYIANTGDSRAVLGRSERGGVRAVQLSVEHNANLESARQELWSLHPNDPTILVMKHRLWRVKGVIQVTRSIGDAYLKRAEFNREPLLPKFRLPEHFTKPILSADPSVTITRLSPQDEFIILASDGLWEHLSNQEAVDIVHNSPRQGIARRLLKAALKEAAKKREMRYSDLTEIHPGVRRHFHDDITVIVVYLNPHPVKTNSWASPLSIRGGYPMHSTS
Description: in vitro pull-down (His-SSPP-bound Ni-NTA beads, anti-GST blot). Particulars: chain shown with the change; 20% pull-down, 10% input loaded; parent: 1.00.

B1: GST-AtSARK-CD, cytoplasmic domain of Arabidopsis thaliana senescence-associated receptor-like kinase AtSARK, wild type, Q8VYT3 Y413F (protein)
chain: CWYRKKQRRLLILNLNDKQEEGLQGLGNLRSFTFRELHVYTDGFSSKNILGAGGFGNVYRGKLGDGTMVAVKRLKDINGTSGDSQFRMELEMISLAVHKNLLRLIGYCATSGERLLVYPYMPNGSVASKLKSKPALDWNMRKRIAIGAARGLLFLHEQCDPKIIHRDVKAANILLDECFEAVVGDFGLAKLLNHADSHVTTAVRGTVGHIAPEYLSTGQSSEKTDVFGFGILLLELITGLRALEFGKTVSQKGAMLEWVRKLHEEMKVEELLDRELGTNYDKIEVGEMLQVALLCTQYLPAHRPKMSEVVLMLEGDGLAERWAASHNHSHFYHANISFKTISSLSTTSVSRLDAHCNDPTYQMFGSSAFDDDDDHQPLDSFAMELSGPR
As for B1, the ratio to parent amounted to 1.16.

B2: GST-AtSARK-CD, cytoplasmic domain of Arabidopsis thaliana senescence-associated receptor-like kinase AtSARK, wild type, Q8VYT3 Y473E (protein)
chain: B1 chain with F154Y, Y214E
For B2, the ratio to parent was found to be 0.98.

B3: GST-AtSARK-CD, cytoplasmic domain of Arabidopsis thaliana senescence-associated receptor-like kinase AtSARK, wild type, Q8VYT3 T465A (protein)
chain: B1 chain with F154Y, T206A
Turning to B3, the ratio to parent came out at 0.9.

B4: GST-AtSARK-CD, cytoplasmic domain of Arabidopsis thaliana senescence-associated receptor-like kinase AtSARK, wild type, Q8VYT3 T326D (protein)
chain: B1 chain with T67D, F154Y
Consider B4, for which the ratio to parent worked out at 0.84.

B5: GST-AtSARK-CD, cytoplasmic domain of Arabidopsis thaliana senescence-associated receptor-like kinase AtSARK, wild type, Q8VYT3 Y413E (protein)
chain: B1 chain with F154E
On to B5, for which the ratio to parent was 0.12.

B6: GST-AtSARK-CD, cytoplasmic domain of Arabidopsis thaliana senescence-associated receptor-like kinase AtSARK, wild type, Q8VYT3 S304D (protein)
chain: B1 chain with S45D, F154Y
As for B6, the ratio to parent was found to be 0.95.

B7: GST-AtSARK-CD, cytoplasmic domain of Arabidopsis thaliana senescence-associated receptor-like kinase AtSARK, wild type, Q8VYT3 T326A (protein)
chain: B1 chain with T67A, F154Y
Regarding B7, the ratio to parent is 0.97.

B8: GST-AtSARK-CD, cytoplasmic domain of Arabidopsis thaliana senescence-associated receptor-like kinase AtSARK, wild type, Q8VYT3 Y473F (protein)
chain: B1 chain with F154Y, Y214F
B8: the ratio to parent is 0.96.

B9: GST-AtSARK-CD, cytoplasmic domain of Arabidopsis thaliana senescence-associated receptor-like kinase AtSARK, wild type, Q8VYT3 S384D (protein)
chain: B1 chain with S125D, F154Y
B9: the ratio to parent was found to be 1.04.

B10: GST-AtSARK-CD, cytoplasmic domain of Arabidopsis thaliana senescence-associated receptor-like kinase AtSARK, wild type, Q8VYT3 S384A (protein)
chain: B1 chain with S125A, F154Y
For the molecule B10, the ratio to parent came to 0.23.

B11: GST-AtSARK-CD, cytoplasmic domain of Arabidopsis thaliana senescence-associated receptor-like kinase AtSARK, wild type, Q8VYT3 S304A (protein)
chain: B1 chain with S45A, F154Y
Regarding B11, the ratio to parent came out at 1.08.

B12: GST-AtSARK-CD, cytoplasmic domain of Arabidopsis thaliana senescence-associated receptor-like kinase AtSARK, wild type, Q8VYT3 T465D (protein)
chain: B1 chain with F154Y, T206D
On to B12, for which the ratio to parent came out at 0.88.
